Measured values: US20240150489A1 (ICHNOS SCIENCES, published 2024)
Numbering of substitutions follows the chain as printed. Names may count otherwise. Values belong to the binder of their own block, whether it stands above or below them.

Tests used:
[1] = target: T1, recombinant biotinylated human CD38 Avitag, His Tag (Acrobiosystems, CD8-H82E7) (human, UniProt P28907 43-300, biotinylated (Avitag)); experiment: SPR, biotinylated CD38 captured, Fab analyte, 1:1 fit;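 note: biacore T200 at 25 °C, single-cycle kinetics with Fab injected at 7.8–2000 nM for 3 min, dissociation followed 5 min, reference flow path subtracted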
T1 construct: Bought protein; also called biotinylated human CD38-avi-his protein; biotinylated recombinant human CD38 protein

[2] = target: T2, recombinant cynomolgus monkey CD38-ECD-C-his (cynomolgus monkey, UniProt Q5VAN0 45-301); experiment: SPR, His-captured cyno CD38, Fab analyte; NB = no detectable binding
T2 construct: Extracellular region fused to 6-His; also called cyno CD38-C-His; recombinant cynomolgus monkey CD38 protein

human CD47-ECD-Avi-His [3] = target: T3, human CD47-ECD-Avi-His (human); experiment: SPR, CD47 amine-coupled, Fab analyte, 1:1 fit
T3 construct: also called recombinant human CD47-avi-his protein; recombinant human CD47 protein

[4] = target: T4, cynomolgus CD47-ECD-Avi-His (cynomolgus monkey); experiment: SPR, CD47 amine-coupled, Fab analyte, 1:1 fit
T4 construct: also called recombinant cynomolgus monkey CD47-avi-his protein
T4 chain: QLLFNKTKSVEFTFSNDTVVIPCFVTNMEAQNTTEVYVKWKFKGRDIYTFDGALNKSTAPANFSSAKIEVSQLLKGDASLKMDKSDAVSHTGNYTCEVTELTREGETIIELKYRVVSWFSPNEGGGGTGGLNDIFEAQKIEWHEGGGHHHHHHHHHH

human CD47-ECD-Avi-His [5] = target: T3, human CD47-ECD-Avi-His; experiment: SPR; human CD47; value given in the text of paragraph 230
[6] = target: T4, cynomolgus CD47-ECD-Avi-His; experiment: SPR; cynomolgus monkey CD47; value given in the text of paragraph 230
Human FcyRI [7] = target: T5, Human FcyRI (human, UniProt P12314 16-288, limits assumed); experiment: SPR; reference trastuzumab
T5 construct: also called FcγRIa

Human FcyRIIA [8] = target: T6, Human FcyRIIA (human, UniProt P12318 34-208, limits assumed); experiment: SPR; reference trastuzumab
T6 construct: also called FcγRIIa
T6 chain: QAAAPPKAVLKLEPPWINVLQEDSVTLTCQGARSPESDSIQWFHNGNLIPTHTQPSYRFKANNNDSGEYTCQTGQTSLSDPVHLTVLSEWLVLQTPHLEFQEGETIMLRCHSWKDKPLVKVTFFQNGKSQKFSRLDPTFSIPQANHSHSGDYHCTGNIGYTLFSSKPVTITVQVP

Human FcyRIIB [9] = target: T7, Human FcyRIIB (human, UniProt P31994 46-217, limits assumed); experiment: SPR; reference trastuzumab
T7 construct: also called FcγRIIb
T7 sequence (looked up): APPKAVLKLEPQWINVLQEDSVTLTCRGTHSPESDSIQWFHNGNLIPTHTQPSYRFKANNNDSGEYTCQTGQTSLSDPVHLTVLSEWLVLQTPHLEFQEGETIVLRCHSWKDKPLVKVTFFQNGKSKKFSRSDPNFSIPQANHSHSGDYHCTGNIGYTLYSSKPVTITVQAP

Human FcyRIIIA [10] = target: T8, Human FcyRIIIA (human, UniProt P08637 17-193, limits assumed); experiment: SPR; reference trastuzumab
T8 construct: also called FcγRIIIa

Human FcyRIIA [11] = target: T6, Human FcyRIIA; experiment: SPR, antibody on Protein G chip, steady state
Human FcyRIIB [12] = target: T7, Human FcyRIIB; experiment: SPR, antibody on Protein G chip, steady state
Human FcyRIIIA [13] = target: T8, Human FcyRIIIA; experiment: SPR, antibody on Protein G chip, steady state
Human FcyRI [14] = target: T5, Human FcyRI; experiment: SPR, antibody on Protein G chip, 1:1 binding model
Human FcRn = target: T9, Human FcRn (human, UniProt P55899 24-297, limits assumed); experiment: SPR, antibody on Protein L chip, steady state, pH 6.0
T9 construct: Measured at pH 6.0; also called human FcRn receptor

[15] = target: T10, human FcRn-ECD-Avi-His / B2M complex (human, UniProt P61769 21-119); experiment: SPR steady state, antibody captured with Human Fab Capture kit, FcRn analyte; reference trastuzumab control IgG1
T10 construct: B2M was cloned full length with its native leader; The alternative SPR method for BEAT CD38/CD47-60 says only 'FcRn' as analyte; the tie to the in-house complex is inferred; also called human FcRn/B2M complex

[16] = target: T11, CD38 on cells (Daudi, Raji, KMS-12-PE, NCI-H929, KMS-12-BM) (human, UniProt P28907); experiment: flow cytometry on Raji cells (carry CD38 and CD47), anti-human IgG-Fc PE, GeoMFI; apparent whole-cell value, the anti-CD47 arm also binds
T11 construct: full-length, cell surface; These cells also carry CD47

[17] = target: T11, CD38 on cells (Daudi, Raji, KMS-12-PE, …); experiment: flow cytometry on Daudi cells (carry CD38 and CD47), anti-human IgG-Fc PE, GeoMFI; apparent whole-cell value, the anti-CD47 arm also binds
[18] = target: T11, CD38 on cells (Daudi, Raji, KMS-12-PE, …); experiment: flow cytometry on NCI-H929 cells (carry CD38 and CD47), anti-human IgG-Fc PE, GeoMFI; apparent whole-cell value, the anti-CD47 arm also binds
[19] = target: T11, CD38 on cells (Daudi, Raji, KMS-12-PE, …); experiment: flow cytometry on KMS-12-PE cells (carry CD38 and CD47), anti-human IgG-Fc PE, GeoMFI; apparent whole-cell value, the anti-CD47 arm also binds
[20] = target: T11, CD38 on cells (Daudi, Raji, KMS-12-PE, …); experiment: flow cytometry on KMS-12-BM cells (carry CD38 and CD47), anti-human IgG-Fc PE, GeoMFI; apparent whole-cell value, the anti-CD47 arm also binds
[21] = target: T12, CD47 on cells (Daudi cells; human red blood cells) (human, UniProt Q08722 19-323); experiment: blocking of SIRPα-mIgG1 Fc binding to CD47 on Daudi cells, image-based readout with anti-mouse IgG Fc Alexa Fluor 647, % inhibition; the sheet calls the half-maximal value EC50
T12 construct: whole, on cells; These cells also carry CD38

[22] = target: Avi-Tagged FcγRIa (Acrobiosystems, FCA-H82E8) (UniProt P12314 16-288, biotinylated (captured with Biotin CAPture kit)); experiment: SPR, FcγRIa captured on CAP chip, antibody analyte; reference trastuzumab control IgG1
[23] = target: T13, Avi-Tagged FcRn (Acrobiosystems, FCM-H82W2) (human, UniProt P55899 24-297, biotinylated (captured with Biotin CAPture kit)); experiment: SPR steady state, FcRn captured on CAP chip, antibody analyte; reference trastuzumab control IgG1
T13 construct: also called human neonatal Fc receptor

human FcγR2a-ECD-His = target: T14, human FcγR2a-ECD-His (human, UniProt P12318 34-208); experiment: SPR steady state, antibody on protein G chip, receptor analyte; reference trastuzumab control IgG1
T14 construct: His-tagged fusion made in house (UniProt P12318); The SPR method names only 'Fc-receptors IIa, IIb, and IIIa'; also called FcγRIIa; Fc-receptor IIa
T14 chain: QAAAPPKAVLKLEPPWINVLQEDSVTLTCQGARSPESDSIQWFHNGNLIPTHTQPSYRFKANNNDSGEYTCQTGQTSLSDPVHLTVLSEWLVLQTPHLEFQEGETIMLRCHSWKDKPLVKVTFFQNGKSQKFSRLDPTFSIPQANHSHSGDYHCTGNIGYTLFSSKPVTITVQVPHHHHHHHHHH

human FcγR2b-ECD-His = target: T15, human FcγR2b-ECD-His (human, UniProt P31994 46-217); experiment: as above
T15 construct: His-tagged fusion made in house (UniProt P31994); also called FcγRIIb; Fc-receptor IIb
T15 sequence: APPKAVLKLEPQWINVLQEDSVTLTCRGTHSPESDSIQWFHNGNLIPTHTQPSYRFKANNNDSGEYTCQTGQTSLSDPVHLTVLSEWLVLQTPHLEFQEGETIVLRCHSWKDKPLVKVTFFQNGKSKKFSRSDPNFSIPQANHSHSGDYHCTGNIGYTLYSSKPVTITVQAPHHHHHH

human FcγR3a-ECD-His = target: T16, human FcγR3a-ECD-His (human, UniProt P08637 17-193); experiment: as above
T16 construct: His-tagged fusion made in house (UniProt P08637); also called FcγRIIIa; Fc-receptor IIIa

Kd (human CD47-ECD-Avi-His [3]): 878 nM | Kd [4]: 939 nM | Kd (human CD47-ECD-Avi-His [5]): 104 nM | Kd [6]: 142 nM
B2: anti-CD47-UCP01-H2 FAB (Fab, V domains shown)
VH: EVQLVESGGGLIQPGGSLRLSCAASGFTLSRNTMHWVRQAPGKGLEWVSVIYQSGVTRYADSVKGRFTISRDNSKNTLYLQMNSLRAEDTAVYYCARGRYGVAGGPGYAFDVWGQGTLVTVSS
VL: not shown
notes: human IgG1 Fab; also called anti-CD47-H2; anti-CD47-H2 Fab

fold enhancement BEAT CD38/47-60 over trastuzumab (Human FcyRI [7]): 2.6 fold | fold enhancement BEAT CD38/47-60 over trastuzumab (Human FcyRIIA [8]): 4.4 fold | fold enhancement BEAT CD38/47-60 over trastuzumab (Human FcyRIIB [9]): 6.7 fold | fold enhancement BEAT CD38/47-60 over trastuzumab (Human FcyRIIIA [10]): 5.6 fold | Kd (Human FcyRIIA [11]): 110 nM | Kd (Human FcyRIIB [12]): 306 nM | Kd (Human FcyRIIIA [13]): 15.1 nM | Kd (Human FcyRI [14]): 0.07 nM | Kd (Human FcRn): 418 nM | KD ratio [BEAT/Control IgG1] [15]: 0.5 ratio | EC50 (read off the curve) [16]: ~4 nM | EC50 (read off the curve) [17]: ~4 nM | EC50 (read off the curve) [18]: ~8 nM | EC50 (read off the curve) [19]: ~3 nM | EC50 (read off the curve) [20]: ~30 nM | IC50 (read off the curve) [21]: ~0.03 nM
B3: BEAT CD38/CD47-60 (bispecific antibody, human IgG1, kappa)
heavy 1: EVQLVESGGGLIQPGGSLRLSCAASGFTLSRNTMHWVRQAPGKGLEWVSVIYQSGVTRYADSVKSRFTISRDNSKNTLYLQMNSLRAEDTAVYYCARGRYGVAGGPGYAFDVWGQGTLVTVSSASTKGPSVFPLAPSSKSTSGGTAALGCLVKDYFPEPVTVSWNSGALTSGVHTFPAVLQSSGLYSLSSVVTVPSSSLGTQTYICNVNHKPSNTKVDKKVEPKSCDKTHTCPPCPAPELLGGPDVFLFPPKPKDTLMISRTPEVTCVVVDVSHEDPEVKFNWYVDGVEVHNAKTKPREEQYNSTYRVVSVLTVLHQDWLNGKEYKCKVNNKALPAPEEKTISKAKGQPREPAVYTLPPSREEMTKNQVKLVCLVTGFYPSDIAVEWESSGQPENNYYTTPPMLDSDGSFSLVSWLNVDKSRWQQGNIFSCSVMHEALHNRFTQKSLSLSPG
heavy 2: not shown
light: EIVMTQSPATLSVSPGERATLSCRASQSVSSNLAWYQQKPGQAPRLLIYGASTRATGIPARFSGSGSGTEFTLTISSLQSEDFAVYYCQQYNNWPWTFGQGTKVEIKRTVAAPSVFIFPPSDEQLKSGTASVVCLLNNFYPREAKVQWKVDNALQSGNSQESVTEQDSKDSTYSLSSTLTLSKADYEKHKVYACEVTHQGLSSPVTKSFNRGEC
notes: 2+1 biparatopic format; BEAT (A): S239D + I332E + S324N, BEAT (B): S324N; also called BEAT CD38/47-60; BEAT 38/47-60

fold gain in affinity vs control [22]: 3750 fold | KD ratio [BEAT/Control IgG1] [23]: 0.5 ratio | fold gain in affinity vs control (human FcγR2a-ECD-His): 6 fold | fold gain in affinity vs control (human FcγR2b-ECD-His): 14 fold | fold gain in affinity vs control (human FcγR3a-ECD-His): 11 fold
B5: BEAT CD38/CD47-42 (bispecific antibody, human IgG1, kappa)
heavy 1: B3 heavy 1
heavy 2: QVQLVQSGAEVKKPGSSVKVSCKASGLPDATYAIGWVRQAPGQGLEWMGRIIPRLDAEHYAQKFQGRVTITADESTSTAYMELSSLRSEDTAVYYCARGLGYYLYSSYYFDIWGQGTLVTVSSASTKGPSVFPLAPSSKSTSGGTAALGCLVKDYFPEPVTVSWNSGALTSGVHTFPAVLQSSGLYSLSSVVTVPSSSLGTQTYICNVNHKPSNTKVDKKVEPKSCDKTHTCPPCPAPELLGGPSVFLFPPKPKDTLMISRTPEVTCVVVDVSHEDPEVKFNWYVDGVEVHNAKTKPREEQYNSTYRVVSVLTVLHQDWLNGKEYKCKVNNKALPAPIEKTISKAKGQPREPEVATFPPSRDELTKNQVTLVCLVTGFYPSDIAVEWESNGQPENNYKTDPPLLESQGSFALSSRLRVDKSRWQQGNVFSCSVMHEALHNHYTQKSLSLSPG
light: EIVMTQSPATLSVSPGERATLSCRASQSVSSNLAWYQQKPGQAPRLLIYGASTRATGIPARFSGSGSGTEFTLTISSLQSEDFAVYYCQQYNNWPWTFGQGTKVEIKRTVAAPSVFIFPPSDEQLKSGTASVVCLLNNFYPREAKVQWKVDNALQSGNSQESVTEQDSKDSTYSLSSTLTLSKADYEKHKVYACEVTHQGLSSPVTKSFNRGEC
notes: 1+1 format; BEAT (A): S239D + I332E + S324N, BEAT (B): S324N

The remaining lines, values behind:

B1: Anti-CD38-UCP01-D1 Fab (Fab, V domains shown)
VH: QVQLVQSGAEVKKPGSSVKVSCKASGGIFNGYLISWVRQAPGQGLEWMGGIIPVNGLADYAQKFQGRVTITADESTSTAYMELSSLRSEDTAVYYCARTIGRYIIAFDYWGQGTLVTVSS
VL: not shown
notes: human IgG1 Fab
Kd [1]: 666 nM | binding result [2]: no binding (tested: 2000 nM)

B4: BEAT CD38/CD47-21 (bispecific antibody, human IgG1, kappa)
heavy 1: B3 heavy 1 with D245S, E338I, K340E
heavy 2: B5 heavy 2 with K340E
light: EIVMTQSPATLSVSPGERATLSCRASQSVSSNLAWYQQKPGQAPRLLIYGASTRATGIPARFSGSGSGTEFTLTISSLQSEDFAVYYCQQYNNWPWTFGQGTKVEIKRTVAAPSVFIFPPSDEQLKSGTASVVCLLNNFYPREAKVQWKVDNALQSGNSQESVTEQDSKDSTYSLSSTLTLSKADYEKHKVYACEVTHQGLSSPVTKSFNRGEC
notes: 1+1 format; Fc mutations S324N + K334E in both heavy chains
fold gain in affinity vs control [22]: 1030 fold | KD ratio [BEAT/Control IgG1] [23]: 0.4 ratio | fold gain in affinity vs control (human FcγR2a-ECD-His): 1 fold | fold gain in affinity vs control (human FcγR2b-ECD-His): 0.1 fold | fold gain in affinity vs control (human FcγR3a-ECD-His): 2 fold
